Stoichiometry N data for 2 substances are collected here from publication PMC8565348.

Assay [1] has as its target His6-BrxU WT (Escherichia fergusonii ATCC 35469). The experiment in a line: SEC; analytical SEC, Superdex 200 Increase 5/150, 20 mM Tris-HCl pH 7.9, 150 mM NaCl; 500 nM BrxU pre-incubated at 37°C for 15 min with 10 mM MgSO4, no nucleotide; dimer to monomers.
For assay [2], the target named is untagged BrxU (Escherichia fergusonii ATCC 35469). Description: SEC; analytical SEC, Superdex 200 Increase 5/150, 20 mM Tris-HCl pH 7.9, 150 mM NaCl; 500 nM BrxU pre-incubated at 37°C for 15 min; no nucleotide, no MgSO4; dimer to monomers. Background: SEC sorts molecules by how far they enter the pores of the column.

For orientation: stoichiometry N means the number of molecules, sites or subunits per partner or assembly.

On to His6-BrxU WT (enzyme), for which the stoichiometry N in assay [1] turned out to be 2.
The substance untagged BrxU (enzyme) came in with a stoichiometry N in assay [2] of 2.
